Laboratory results reported in PMC3434800.
Changes are numbered by the printed parent chain.

T1: Hel308 (ssHel308) wild type (Sulfolobus solfataricus PBL2025, UniProt D0KN27 8-715)
T1 sequence: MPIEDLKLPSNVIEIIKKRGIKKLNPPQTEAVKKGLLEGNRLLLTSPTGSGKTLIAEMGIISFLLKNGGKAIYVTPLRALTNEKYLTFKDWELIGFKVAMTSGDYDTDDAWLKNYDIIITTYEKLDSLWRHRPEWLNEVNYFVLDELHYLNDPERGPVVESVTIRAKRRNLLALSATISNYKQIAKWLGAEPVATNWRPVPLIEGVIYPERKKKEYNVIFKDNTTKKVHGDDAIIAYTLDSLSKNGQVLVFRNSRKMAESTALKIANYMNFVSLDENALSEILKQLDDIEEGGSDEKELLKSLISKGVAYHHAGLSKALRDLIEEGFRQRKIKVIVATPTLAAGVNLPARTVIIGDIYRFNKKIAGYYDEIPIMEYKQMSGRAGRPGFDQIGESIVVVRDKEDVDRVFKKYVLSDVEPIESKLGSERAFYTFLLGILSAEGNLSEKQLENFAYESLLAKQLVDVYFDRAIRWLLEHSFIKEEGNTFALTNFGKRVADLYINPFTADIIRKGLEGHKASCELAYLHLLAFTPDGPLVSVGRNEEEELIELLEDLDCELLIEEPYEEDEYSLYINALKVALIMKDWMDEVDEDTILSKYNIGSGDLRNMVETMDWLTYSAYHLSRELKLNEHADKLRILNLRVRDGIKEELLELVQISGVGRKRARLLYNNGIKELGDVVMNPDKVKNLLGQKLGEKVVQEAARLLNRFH

T2: Hel308 R255A (Sulfolobus solfataricus PBL2025, UniProt D0KN27 8-715, R262A)
T2 sequence: T1 sequence with R255A

T3: Hel308 K52A (Sulfolobus solfataricus PBL2025, UniProt D0KN27 8-715, K59A)
T3 sequence: T1 sequence with K52A

T4: Hel308 R662A (Sulfolobus solfataricus PBL2025, UniProt D0KN27 8-715, R669A)
T4 sequence: T1 sequence with R662A

B1: 15T/15A duplex, 5'-fluorescein on 15T (dsDNA)
DNA 1: TTTTTTTTTTTTTTT
DNA 2: AAAAAAAAAAAAAAA

Tests used:
[1] = molecular target: T1, Hel308 (ssHel308) wild type; assay: fluorescence anisotropy
Hel308 R255A = molecular target: T2, Hel308 R255A; assay: fluorescence anisotropy
Hel308 K52A = molecular target: T3, Hel308 K52A; assay: fluorescence anisotropy
Hel308 R662A = molecular target: T4, Hel308 R662A; assay: fluorescence anisotropy
[2] = molecular target: T1, Hel308 (ssHel308) wild type; assay: competition

Binder	Kd [1] [nM]	binding signal (Hel308 R255A)	binding result (Hel308 K52A)	binding result (Hel308 R662A)	Kd [2] [nM]
TTTTTTTTTTTTTTT (ssDNA) [15T ssDNA, 5'-fluorescein]	140	25 fold increase in Kd vs wild type	binds	binds	
B1	5300				
TTTTTTTTTTTTTTT (ssDNA) [15T ssDNA, unlabelled competitor]					130
